According to publication PMC12145851:

Tests used:
[1] = biological target: phospholamban (PLN) (mouse (endogenous in mouse heart)) (UniProt P61014); assay: co-IP; PLN antibody immunoprecipitation from 3 % glyoxal-fixed (cross-linked) mouse cardiac tissue lysate (xIP group), immunoblot of co-precipitated proteins
[2] = biological target: phospholamban (PLN) (mouse (endogenous in mouse heart)) (UniProt P61014); assay: co-IP; PLN antibody immunoprecipitation from unfixed mouse cardiac tissue lysate (IP group), immunoblot of co-precipitated proteins

Sequence of UniProt P61014 (P61014 whole entry): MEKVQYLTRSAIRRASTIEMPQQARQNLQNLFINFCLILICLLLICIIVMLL

- signal of co-precipitated protein (relative, %) [1]: 282%
- signal of co-precipitated protein (relative, %) [2]: 100%
Substance: integrin beta-1 (ITGB1) (from UniProt P09055 21-798) (natural protein)
